The target of this experiment is T1, chemokine receptor CXCR4, expressed on transfected 293T cells (UniProt P61073 1-352, limits assumed).
T1 construct: whole, on cells; also called CXCR4 receptor
Kind of experiment: phage binding to transfected 293T cells; bound phage rescued and titrated. Here is the method: Briefly, plasmid (10 μg) was mixed with 900 μl of serumfree DMEM and 50 μl of FuGene and incubated for 15 min at room temperature before adding the mixture to the cells. The cells were detached using EDTA after 48 hrs post transfection and washed with PBS containing 1% BSA. Phage (5×10⁹ pfu) were incubated with the transfected cells and bound phage were rescued and titrated. For competitive binding assay, the cognate peptide (150 μg/ml) or antibody (50 μg/ml) was added during incubating of the phage with cells. Targeted proapoptotic peptide treatment of tumor-bearing mice Prostate cancer model. Orthotopic xenografted prostate tumors were established by injecting 1×10⁶ PPC1 human prostate cancer cells into the mouse prostate. Fifteen days post inoculation, the mice were intravenously injected with D(KLAKLAK)₂-[…] (SEQ ID NO:41), an equimolar mixture of D(KLAKLAK)₂ (SEQ ID NO:19) and […] (SEQ ID NO:6), or PBS. Biweekly injections of 100 μg/dose/mouse were given for three weeks. Melanoma model. Nude BALB/c mice were subcutaneously injected with 1×10⁶ C8161 human melanoma cells. Treatment started when mean tumor volumes reached about 100 mm3. Mice with size-matched tumors were randomized into three groups. […] The mice were monitored for weight loss, and tumors were dissected and weighed at the termination of the experiment. […]

T1 sequence (P61073 whole entry): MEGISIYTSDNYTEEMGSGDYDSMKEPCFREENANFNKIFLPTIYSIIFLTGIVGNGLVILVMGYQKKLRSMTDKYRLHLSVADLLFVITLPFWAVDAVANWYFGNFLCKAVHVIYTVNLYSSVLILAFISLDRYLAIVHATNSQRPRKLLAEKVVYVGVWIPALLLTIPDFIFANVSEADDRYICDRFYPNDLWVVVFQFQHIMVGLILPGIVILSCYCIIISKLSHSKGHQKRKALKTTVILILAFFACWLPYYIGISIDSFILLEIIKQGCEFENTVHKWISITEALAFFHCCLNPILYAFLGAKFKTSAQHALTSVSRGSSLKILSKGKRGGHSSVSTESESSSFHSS

Take CGNKRTRGC [LyP-1 phage (T7 phage displaying the peptide CGNKRTRGC, SEQ ID NO:16)]: the binding result is listed as “no binding (tested: 5x10^9 pfu phage)”.

The values are drawn from patent US20110212162A1 (SANFORD BURNHAM MEDICAL RESEARCH INSTITUTE, published 2011).
